From PMC10665668

What was measured:
[1] = target: class II sulfofructose-1-phosphate (SFP) aldolase from Hafnia paralvei (Hafnia paralvei); assay: SEC-MALS
[2] = target: class II sulfofructose-1-phosphate (SFP) aldolase from Yersinia aldovae (Yersinia aldovae); assay: SEC-MALS

| stoichiometry N [1] | stoichiometry N [2] | Substance |
| --- | --- | --- |
| 4 | – | class II sulfofructose-1-phosphate (SFP) aldolase from Hafnia paralvei (enzyme) |
| – | 4 | class II sulfofructose-1-phosphate (SFP) aldolase from Yersinia aldovae (enzyme) |
